The target in experiment [1] is BCMA-AM2. As to the kind of experiment: flow cytometry; supernatant on CAR-transduced Jurkat cells (BCMA-AM2), FITC goat anti-rabbit F(ab')2 detection. Background: A flow cytometer gives signals particle by particle.
In experiment [2] the target is BCMA-AM1. As to the kind of experiment: flow cytometry; supernatant on CAR-transduced Jurkat cells (BCMA-AM1), FITC goat anti-rabbit F(ab')2 detection.
The target in experiment [3] is CAR-3. As to the kind of experiment: flow cytometry; clonal supernatant on control CAR-3 T cells, FITC goat anti-rabbit F(ab')2 detection.
The target of experiment [4] is CAR-2. As to the kind of experiment: flow cytometry; clonal supernatant on control CAR-2 T cells, FITC goat anti-rabbit F(ab')2 detection.
Experiment [5] has as its target anti-BCMA CAR. As to the kind of experiment: flow cytometry; clonal supernatant on anti-BCMA CAR T cells, FITC goat anti-rabbit F(ab')2 detection.
Experiment [6] concerns the target anti-BCMA CAR. As to the kind of experiment: flow cytometry; supernatant on CAR-transduced Jurkat cells (panel BCMA WT), FITC goat anti-rabbit F(ab')2 detection.
For experiment [7], the target named is BCMA-AM1. As to the kind of experiment: flow cytometry; supernatant on CAR-transduced Jurkat cells (panel BCMA-AM1), FITC goat anti-rabbit F(ab')2 detection.
Experiment [8] deals with BCMA-AM2. As to the kind of experiment: flow cytometry; supernatant on CAR-transduced Jurkat cells (panel BCMA-AM2), FITC goat anti-rabbit F(ab')2 detection.

The source of these data is patent publication US20200377609A1.

B1: Clone 77-9 (antibody, V domains shown)
VH: QSLEESGGALVKPGASLALTCTASGFSFNLRHYMCWVRQAPGKGLEWIGCVHGGSSGGTYYASWTKGRFTISKTSSTTVTLQMTSLTAADTATYFCAREDDIMMAGEFSLWGPGTLVTVSS
VL: DIVMTQTPSSVEASVGGTVTIKCQASEDIESYLVWYQQKPGQPPKLLIYQASNLASGVPSRFYGSGSGTQFTLTISDLECADASTYYCQSYVEGGVDVVFGGGTEVVVK
Take B1: the results for the FITC+ (gate frequency) in experiment [1] and in experiment [2] were 91.6 and 82.4, respectively.

B2: Clone 83-3 (antibody, V domains shown)
VH: QSLEESGGDLVKPGASLTLTCTASGFSFNLRHYMCWVRQAPGKGLEWIGCVHGGSSSGTYYASWAKGRFTISKTSSTTVTLQMTSLTAADTATYFCTREDDIMMAGEFGLWGPGTLVTVSS
VL: DIVMTQTPSSVSEPVGGTVTIKCQASEDIESYLVWYQQKPGQPPKLLIYQASNLASGVPSRFSGSGSGTEYTLTISDLECADAATYYCQSYIEGGVDVVFGGGTEVVVK
B2: the FITC+ (gate frequency) in experiment [1] was 90.2; in experiment [2], 83.4.

B3: Clone 89-10 (antibody, V domains shown)
V domain 1: QEQLVESRGGLVKPGGSLTLTCKASGFSFSTGYYACWVRQAPGKGLELSACVDTGSGDTFYASWARGRFTISKTSSSTVTLQMTSLTVADTATYFCARTALVMTDFYFNLWGPGTLTTVSS
V domain 2: ALVMTQTPASVEAAVGGTVTINCQASQWISNELSWYQQKPGQPPKLLIYLASTLASGVPSRFKGSGSGTEFTLTISDLECADAATYYCQQGYNIGHLDNAFGGGTEVVVK
On to B3, for which the FITC+ (gate frequency) in experiment [1] turned out to be 0.042; in experiment [2], 82.7.

B4: Clone 63-1 (antibody, V domains shown)
VH: QEQLEESGGDLVKPGASLTLTCTASGFSFSSGYWICWVRQAPGKGLEWIACIYTRSGGSTHYASWAKGRFTTSKTSSTTVTLQMTSLTAADMATYFCARDPYVLSAGPDNVLWGPGTLVTVSS
VL: ALVMTQTPSPVSAAVGGTVTINCQASESIGSDLGWYQQKPGQPPKFLIYWASTLVSGVPSRFEGSGSGTQFTLTISDLECDDAATYYCAGYESLSNDGNAFGGGTEVVVK
As for B4, the CAR+ (gate frequency) came out at 0.14 in experiment [3], 0.1 in experiment [4] and 58.2 in experiment [5].

B5: Clone 9-1 (antibody, V domains shown)
VH: QQQLEESGGGLVKPGGTLTLTCTASGFSFSSGQWMCWVRQAPGKGLELIACIYTSAGGSTHYASWATGRFTISKTSSTTVTLQMTSLTAADTATYFCARDPYLLSAGPDNNLWGPGTLVAVSS
VL: ALVMTQTPSPVSAAVGGTVTINCQASQSIGSDFTWWQQKPGQPPKLLIYWASTLASGVSSRFKGSGSGTQFTLTISDLECDDAATYYCAGYVSYSDDGNAFGGGTEVVVK
For the molecule B5, the FITC+ (gate frequency) in experiment [6] is 75.2; in experiment [7], 0.14; in experiment [8], 95.3. In addition, the CAR+ (gate frequency) in experiment [3] was 0.11; in experiment [4], 0.18; in experiment [5], 60.9.

B6: Clone 80-7 (antibody, V domains shown)
VH: QEQLEESGGDLVKPEGSLTLTCTASGFSFSSAYWICWVRQVPGKGLEWIACIYTGSGGRSHYASWAKGRFTISKTSSTTVTLQMTSLTAADTATYFCARDPYILSAGPDNVLWGPGTLVTVSS
VL: ALVMTQTPSPVSAAVGGTVTINCQASQSIGSDLGWFQQKPGQPPKLLIYWASTLASGVPSRFEGSGSGTQFTLTISDLECDDAATYYCAGYESLSNDGNAFGGGTEVVVK
As for B6, the results for the CAR+ (gate frequency) in experiment [3], in experiment [4] and in experiment [5] were 0.067, 0.22 and 31.5, respectively.

B7: Clone 9-9 (antibody, V domains shown)
VH: QQQLEESGGGLVKPGGTLTLTCTASGFSFSSGQRMCWVRQAPGKGLELIACIYTSAGGSTHYASWATGRFTISKTSSTTVTLQMTSLTAADTATYFCARDPYLLSAGPDNNLWGPGTLVAVSS
VL: ALVMTQTPSPVSAAVGGTVTINCQASQSIGSDFTWWQQKPGQPPKLLIYWASTLASGVSSRFKGSGSGTQFTLTISDLECDDAATYYCAGYVSYSDDGNAFGGGTEVVVK
With B7, the results for the CAR+ (gate frequency) in experiment [3], in experiment [4] and in experiment [5] were 0.13, 0.067 and 51.8, respectively.

B8: Clone 154-7 (antibody, V domains shown)
VH: QSLEESGGDLVKPEGSLTLTCTASGFSFSSSYWICWVRQAPGKGLEWIACIYTANSGRTVYASWAKGRFTISKTSSTTVTLQLPSLTAADTATYFCARDIYVLTTTDNLWGPGTLVTVSS
VL: ALVMTQAPSPVSAAVGGTVTISCQASQPIGSDLVWYQQKPGQPPKLLIYYASDLASGVPSRFKGSGSGTRFTLTISGVECDDAATYYCAGYKNYDHDDCGFGGGTEVVVK
Regarding B8, the values for the CAR+ (gate frequency) in experiment [3], in experiment [4] and in experiment [5] were 0.15, 0.067 and 47.1, respectively.

B9: Clone 18-4 (antibody, V domains shown)
VH: QERLVESGGGLVQPEGSLTLTCTASGLTLSNYWLCWVRQAPGKGLEWIACIYTGNYGSAYYANWVKGRFTISKASSTTVTLQMTSLTAADTATYFCARDPYTLTNVDVLWGPGTLVTVSS
VL: ALVMTQTPSPVSAAVGGTVTINCQASQSIGSDLAWYQQRPGQPPKLLIYWASTLASGVPSRFSGSGSGTQFTLTISDLECDDAATYYCTGYISYNDDNAAFGGGTEVVVK
Turning to B9, the CAR+ (gate frequency) in experiment [3] is 1.81; in experiment [4], 0.09; in experiment [5], 41.7.

B10: Clone 137-2 (antibody, V domains shown)
VH: QEQLVESGGGLVQPEGSLTLTCTASGFSFSLSNWICWVRQAPGKGLEWVACIYVSVSGNTRYASWAKGRFTISETSSTTVTLQMTGLTAADTATYFCARDPFSLVSVDRSLWGPGTLVTVSS
VL: ALVMTQTPSPVSAAVGGTVTINCQASQSIGSDLSWFQQKPGQPPKLLMYWASSLASGVPSRFKGSGSGTQFTLTISDLECDDAATYYCAGYVNYNNDDAAFGGGTEVVVK
For B10, the CAR+ (gate frequency) is 0.093 in experiment [3], 0.11 in experiment [4] and 42.4 in experiment [5].
